Experimental findings from patent US20250127814A1 (UNIVERSITY OF CHICAGO, published 2025) are described below.

Positions count from the first letter of the chain named.

Assay [1] has as its target T1, Borealin C-terminal domain (207-280) (human, UniProt Q53HL2 207-280, biotinylated on the Avi-tag (co-expression with BirA)).
T1 construct: range 207-280; The construct carries His- and Avi-tags; Expressed in E. coli; Immobilised via neutravidin (ELISA) or His-tag/NTA chip (SPR); also called Bor-C
T1 sequence (looked up): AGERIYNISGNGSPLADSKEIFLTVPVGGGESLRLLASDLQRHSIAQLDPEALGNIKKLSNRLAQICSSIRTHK
The experiment in a line: SPR, His-tagged target on NTA chip, 2-fold dilutions of the Fab injected, 1:1 Langmuir fit [panel B, middle]. The procedure:
(§1) The targets were immobilized onto a nitrilotriacetic acid (NTA) sensor chip via His-tag. 2-fold serial dilutions of the Fab were injected following ligand immobilization on the sensor chip. For each kinetic assay at least five dilutions of the Fab were tested. The data were fitted using 1:1 Langmuir Model to obtain the on-rate, off-rate and the affinity (KD) of the Fab-target interaction.
On the technique in general: In SPR one partner is held on a chip, and binding of the other changes the refractive index at the surface.

Assay [2] has as its target T2, Borealin N-terminal domain (20-88) (human, UniProt Q53HL2 20-88, biotinylated on the Avi-tag (co-expression with BirA)).
T2 construct: range 20-88; The construct carries His- and Avi-tags; Expressed in E. coli; Immobilised via neutravidin (ELISA) or His-tag/NTA chip (SPR); also called Bor-N
T2 sequence (looked up): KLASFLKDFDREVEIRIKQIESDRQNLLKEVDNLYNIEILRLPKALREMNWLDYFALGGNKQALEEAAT
In words: single-point Fab ELISA, 50 nM biotinylated target on neutravidin, protein L-HRP [panel A]. Here is the method:
(§2) To rapidly reconfirm the binding and specificity of the obtained Fabs after reformatting into the expression vectors single-point Fab ELISA was performed (FIG. 2). Briefly, 50 nM Avi-tagged targets were immobilized on the prepared NAV-coated and blocked with 0.5% BSA in PBS 96-well ELISA plates. The target coated plates were washed with appropriate buffer (TBST or PBST) and were incubated with 200 nM Fab for 20 minutes and then washed. The washed plates were incubated with protein L conjugated with HRP (1:5000 diluted in TBST) for 30 minutes. Plates were washed and the reaction was developed using the TMB chromogenic substrate (Thermofisher) and subsequently quenched with 1M HCl. Absorbance was read at 450 nm on Epoch plate reader.

Assay [3] addresses T1, Borealin C-terminal domain (207-280). The experiment in a line: single-point Fab ELISA, 50 nM biotinylated target on neutravidin, protein L-HRP [panel B]. The procedure:
as §2
On the technique in general: In an ELISA, binding on a coated surface is turned into a signal by an enzyme label.

Assay [4] addresses T2, Borealin N-terminal domain (20-88). In words: single-point Fab ELISA, 50 nM biotinylated target on neutravidin, 200 nM Fab, protein L-HRP [panel A]. The procedure:
as §2

For assay [5] the target is unchanged. In words: SPR, His-tagged target on NTA chip, 2-fold dilutions of the Fab injected, 1:1 Langmuir fit [panel A]. Here is the method:
as §1

Assay [6] concerns the target T1, Borealin C-terminal domain (207-280). In words: Western blot of recombinant CPC domains, Fab as primary reagent, anti-human F(ab')2 IgG-HRP [panel A]. Here is the method: (§3) Recombinant CPC targets Survivin-N(N-term), Borealin-N(N-term), Borealin-C(C-term) and INCENP-N(N-term) domains were run on SDS-PAGE and transferred into PVDF membrane. […] The assay was developed by using a secondary anti-human-F(ab′)2 IgG-HRP reagent
(§4) Membranes were stained with Ponceau S dye to verify correct transfer of the proteins, were briefly washed with ddH2O and blocked with 4% skimmed milk in TBS-T containing 0.05% Tween20 for 30 min. at RT on the shaker. Blocking solution was discarded and membranes were incubated with Borealin Fabs as primary detection reagents at concentration 5-10 µg/ml, in blocking buffer at 4 C O/N on the shaker. Membranes were washed 3 times with TBS-T and incubated with secondary anti-human FAB′2 specific HRP-conjugated IgG (diluted 1:10,000 in blocking buffer) for 45 minutes at RT, shaking. Membranes were washed again 3× with TBS-T, developed with ECL chemiluminescent substrate and visualized with the Biorad imaging instrument (FIG. 10).
(Immunoblotting shows a protein as a band on a membrane.)

Assay [7] has the same target. The experiment in a line: SPR, His-tagged target on NTA chip, 2-fold dilutions of the Fab injected, 1:1 Langmuir fit [panel B, bottom]. The procedure:
as §1

Assay [8] deals with T2, Borealin N-terminal domain (20-88). The experiment in a line: Western blot of recombinant CPC domains, Fab as primary reagent, anti-human F(ab')2 IgG-HRP [panel B]. The procedure: as §3, §4
The target in a further assay is T3, Sur-N.
T3 construct: Specificity lane in the Western blots; also called Survivin-N (N-term); Sur N: 1-120
Described as above. Here is the method:
as §3, §4

The next assay concerns the target T4, INC-N.
T4 construct: Specificity lane in the Western blots; also called INCENP-N (N-term); Inc: 1-58
T4 chain: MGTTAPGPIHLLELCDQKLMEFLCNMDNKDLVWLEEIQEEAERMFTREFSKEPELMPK
The description is as above. The procedure:
as §3, §4

Assay [9] addresses T1, Borealin C-terminal domain (207-280). In words: SPR, His-tagged target on NTA chip, 2-fold dilutions of the Fab injected, 1:1 Langmuir fit [panel B, top]. Here is the method: as §1

T3 sequence (chain, as listed by the source limits assumed): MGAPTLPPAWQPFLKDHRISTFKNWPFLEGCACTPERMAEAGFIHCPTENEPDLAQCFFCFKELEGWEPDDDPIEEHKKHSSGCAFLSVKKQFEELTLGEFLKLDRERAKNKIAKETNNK

B1: BOR-C-61 (Fab, V domains shown)
VH: EVQLVESGGGLVQPGGSLRLSCAASGFNFYSSYIHWVRQAPGKGLEWVASISSSSGSTSYADSVKGRFTISADTSKNTAYLQMNSLRAEDTAVYYCARRSGGGLDYWGQGTLVTVSS
VL: DIQMTQSPSSLSASVGDRVTITCRASQSVSSAVAWYQQKPGKAPKLLIYSASSLYSGVPSRFSGSRSGTDFTLTISSLQPEDFATYYCQQSSSSLITFGQGTKVEIKR
notes: also called BOR-C-61 Fab
Take B1: in [1], the affinity, expressed as Kd, was 8.5 nM.

B2: BOR-N-65 (Fab, V domains shown)
VH: EVQLVESGGGLVQPGGSLRLSCAASGFNFSSSSIHWVRQAPGKGLEWVASISSSSGSTSYADSVKGRFTISADTSKNTAYLQMNSLRAEDTAVYYCARESSQTKKYWYWVVQWYTAMDYWGQGTLVTVSS
VL: B1 VL with S91Y, S93Q, S94W
notes: also called BOR-N-65 Fab
On to B2, for which, in assay [2], the binding result is listed as “no binding (tested: 200 nM)”.

B3: BOR-C-58 (Fab, V domains shown)
VH: EVQLVESGGGLVQPGGSLRLSCAASGFNVSSYSIHWVRQAPGKGLEWVASISPYYGYTSYADSVKGRFTISADTSKNTAYLQMNSLRAEDTAVYYCARHYYYGFSWFSSGYAMDYWGQGTLVTVSS
VL: B1 VL with S91G, L95P
notes: also called BOR-C-58 Fab
B3: the binding result in assay [3] is on record as “no binding (tested: 200 nM)”.

B4: BOR-N-49 (Fab, V domains shown)
VH: EVQLVESGGGLVQPGGSLRLSCAASGFNVSSYSIHWVRQAPGKGLEWVASIYSSSSSTYYADSVKGRFTISADTSKNTAYLQMNSLRAEDTAVYYCARRYYHYRYPLFWGWYGMDYWGQGTLVTVSS
VL: B1 VL with S92F, S93W, S94W, L95P
notes: also called BOR-N-49 Fab
As to B4, the binding result in assay [4] was “binds”.

B5: BOR-N-48 (Fab, V domains shown)
VH: EVQLVESGGGLVQPGGSLRLSCAASGFNFSYSSIHWVRQAPGKGLEWVASIYPYSGSTYYADSVKGRFTISADTSKNTAYLQMNSLRAEDTAVYYCARKQVSGWWWYYGFDYWGQGTLVTVSS
VL: B1 VL with S92Y, S93W, S94W, L95P
notes: also called BOR-N-48 Fab
For the molecule B5, in [5], the affinity, expressed as Kd, was 0.4 nM. The binding result in assay [6] was “no binding (tested: 5-10 ug/ml (the text prints 'lg/ml'))”.

B6: BOR-C-64 (Fab, V domains shown)
VH: EVQLVESGGGLVQPGGSLRLSCAASGFNVYYSSIHWVRQAPGKGLEWVASISSYYGSTYYADSVKGRFTISADTSKNTAYLQMNSLRAEDTAVYYCARWKWVAMDYWGQGTLVTVSS
VL: B1 VL with S91D, S92L, S93F, S94M, L95P
notes: also called BOR-C-64 Fab
In the case of B6, in assay [7], the dissociation constant (Kd) (commonly the free concentration of one partner at which half of the binding sites on the other are occupied at equilibrium, for simple one-to-one binding) came to 0.6 nM.

B7: BOR-N-50 (Fab, V domains shown)
VH: EVQLVESGGGLVQPGGSLRLSCAASGFNVYSYSIHWVRQAPGKGLEWVASIYSYSGYTYYADSVKGRFTISADTSKNTAYLQMNSLRAEDTAVYYCARSTYPHVYLYFGLDYWGQGTLVTVSS
VL: B1 VL with S92Y, S93Y, S94W, L95P, I96V
notes: also called BOR-N-50 Fab
Regarding B7, the binding result in [4] was “binds”.

B8: BOR-C-56 (Fab, V domains shown)
VH: EVQLVESGGGLVQPGGSLRLSCAASGFNISSSSIHWVRQAPGKGLEWVAYISSYSGSTYYADSVKGRFTISADTSKNTAYLQMNSLRAEDTAVYYCARYYHSPLWYYSYSGMDYWGQGTLVTVSS
VL: DIQMTQSPSSLSASVGDRVTITCRASQSVSSAVAWYQQKPGKAPKLLIYSASSLYSGVPSRFSGSRSGTDFTLTISSLQPEDFATYYCQQDYSWSPITFGQGTKVEIKR
notes: also called BOR-C-56 Fab
Turning to B8, the binding result (in assay [8]; in the assay with Sur-N; with INC-N) was “no binding (tested: 5-10 ug/ml (the text prints 'lg/ml'))” throughout. The Kd in assay [9] is 11.6 nM.

B9: BOR-N-51 (Fab, V domains shown)
VH: EVQLVESGGGLVQPGGSLRLSCAASGFNVYSYSIHWVRQAPGKGLEWVASIYSSYSYTSYADSVKGRFTISADTSKNTAYLQMNSLRAEDTAVYYCARKYHFKPTYWGAMDYWGQGTLVTVSS
VL: B8 VL with D91S, Y92S, S93L, W94Y, S95Y, I97L
notes: also called BOR-N-51 Fab
Regarding B9, the binding result in assay [4] is recorded as “binds”.
